Data reported in patent publication US20180079819A1 (IMMUNOGEN, published 2018).

B1: lysine-linked huCD123-6-IGN conjugate with DGN462 (antibody, human IgG1, kappa)
heavy: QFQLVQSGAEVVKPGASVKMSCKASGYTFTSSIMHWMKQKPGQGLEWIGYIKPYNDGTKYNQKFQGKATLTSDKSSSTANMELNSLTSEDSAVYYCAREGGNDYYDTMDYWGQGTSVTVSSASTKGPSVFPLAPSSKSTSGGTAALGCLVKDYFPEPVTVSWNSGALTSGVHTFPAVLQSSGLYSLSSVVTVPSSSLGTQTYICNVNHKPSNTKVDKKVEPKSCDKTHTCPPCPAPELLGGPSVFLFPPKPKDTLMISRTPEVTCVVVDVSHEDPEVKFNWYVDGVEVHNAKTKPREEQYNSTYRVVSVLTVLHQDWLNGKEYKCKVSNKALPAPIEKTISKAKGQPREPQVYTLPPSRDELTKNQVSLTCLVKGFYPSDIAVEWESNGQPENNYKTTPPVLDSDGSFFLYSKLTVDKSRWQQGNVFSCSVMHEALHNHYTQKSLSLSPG
light: DIQMTQSPSSMSASVGERVTITCRASQDINSYLSWFQQKPGKSPKTLIYRVNRLVDGVPSRFSGSGSGQDYSLTISSLEPEDMGIYYCLQYDAFPYTFGQGTKLEIKRTVAAPSVFIFPPSDEQLKSGTASVVCLLNNFYPREAKVQWKVDNALQSGNSQESVTEQDSKDSTYSLSSTLTLSKADYEKHKVYACEVTHQGLSSPVTKSFNRGEC
modifications: DGN462 linked at Lys residues; sites not stated; DGN462 linked at Lys residues; sites and drug load not given
B2: lysine-linked huCD123-6-IGN conjugate with D3 (antibody, human IgG1, kappa)
heavy: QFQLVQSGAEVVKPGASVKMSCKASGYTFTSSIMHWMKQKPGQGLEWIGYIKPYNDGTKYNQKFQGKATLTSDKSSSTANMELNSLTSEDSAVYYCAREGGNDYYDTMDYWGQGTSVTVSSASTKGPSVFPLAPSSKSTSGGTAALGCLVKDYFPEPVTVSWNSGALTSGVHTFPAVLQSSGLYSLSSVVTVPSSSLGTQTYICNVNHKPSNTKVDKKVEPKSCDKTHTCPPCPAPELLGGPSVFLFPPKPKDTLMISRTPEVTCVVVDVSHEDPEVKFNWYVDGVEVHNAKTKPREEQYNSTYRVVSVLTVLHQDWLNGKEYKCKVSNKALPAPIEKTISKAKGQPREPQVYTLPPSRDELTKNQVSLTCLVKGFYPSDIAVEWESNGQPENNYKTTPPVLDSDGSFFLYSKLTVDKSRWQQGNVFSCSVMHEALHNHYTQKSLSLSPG
light: DIQMTQSPSSMSASVGERVTITCRASQDINSYLSWFQQKPGKSPKTLIYRVNRLVDGVPSRFSGSGSGQDYSLTISSLEPEDMGIYYCLQYDAFPYTFGQGTKLEIKRTVAAPSVFIFPPSDEQLKSGTASVVCLLNNFYPREAKVQWKVDNALQSGNSQESVTEQDSKDSTYSLSSTLTLSKADYEKHKVYACEVTHQGLSSPVTKSFNRGEC
modifications: D3 linked at Lys residues; sites not stated; D3 linked at Lys residues; sites and drug load not given
B3: lysine-linked huCD123-6-IGN conjugate with D1 (antibody, human IgG1, kappa)
heavy: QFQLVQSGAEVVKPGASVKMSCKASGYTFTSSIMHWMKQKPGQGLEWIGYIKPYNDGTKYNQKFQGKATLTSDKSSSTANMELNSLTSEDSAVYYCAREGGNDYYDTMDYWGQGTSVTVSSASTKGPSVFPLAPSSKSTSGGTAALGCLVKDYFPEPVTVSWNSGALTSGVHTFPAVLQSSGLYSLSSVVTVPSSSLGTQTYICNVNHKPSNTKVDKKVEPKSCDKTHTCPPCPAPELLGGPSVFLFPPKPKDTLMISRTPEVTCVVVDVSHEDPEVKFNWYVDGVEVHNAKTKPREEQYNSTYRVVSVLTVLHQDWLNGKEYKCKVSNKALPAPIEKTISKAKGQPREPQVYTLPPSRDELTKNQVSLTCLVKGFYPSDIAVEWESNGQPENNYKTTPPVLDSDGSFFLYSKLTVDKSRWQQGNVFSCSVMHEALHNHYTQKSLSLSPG
light: DIQMTQSPSSMSASVGERVTITCRASQDINSYLSWFQQKPGKSPKTLIYRVNRLVDGVPSRFSGSGSGQDYSLTISSLEPEDMGIYYCLQYDAFPYTFGQGTKLEIKRTVAAPSVFIFPPSDEQLKSGTASVVCLLNNFYPREAKVQWKVDNALQSGNSQESVTEQDSKDSTYSLSSTLTLSKADYEKHKVYACEVTHQGLSSPVTKSFNRGEC
modifications: D1 linked at Lys residues; sites not stated; D1 linked at Lys residues; sites and drug load not given

Molecular target: human CD123 (IL-3Rα, interleukin-3 receptor alpha chain) (human, UniProt P26951 19-378)
Sequence (P26951 19-378): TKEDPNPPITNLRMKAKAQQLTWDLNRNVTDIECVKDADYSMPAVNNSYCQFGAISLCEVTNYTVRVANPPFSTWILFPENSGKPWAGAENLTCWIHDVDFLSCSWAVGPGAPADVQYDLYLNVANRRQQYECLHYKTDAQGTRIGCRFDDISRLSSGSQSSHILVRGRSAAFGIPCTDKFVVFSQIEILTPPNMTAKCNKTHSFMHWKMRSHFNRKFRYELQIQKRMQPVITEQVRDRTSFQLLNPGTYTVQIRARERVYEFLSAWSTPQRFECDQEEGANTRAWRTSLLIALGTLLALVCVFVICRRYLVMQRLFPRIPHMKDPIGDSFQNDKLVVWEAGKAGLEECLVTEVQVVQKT
Assay: cell-based or functional assay

Binder | IC50, in vitro cytotoxicity on EOL-1 cells (AML) | IC50, in vitro cytotoxicity on Granta519 cells (NHL) | IC50, in vitro cytotoxicity on HNT-34 cells (AML) | IC50, in vitro cytotoxicity on JM-1 cells (B-ALL) | IC50, in vitro cytotoxicity on KASUMI-3 cells (AML) | IC50, in vitro cytotoxicity on KCL-22 cells (CML) | IC50, in vitro cytotoxicity on KG-1 cells (AML) | IC50, in vitro cytotoxicity on KO52 cells (AML) | IC50, in vitro cytotoxicity on KOPN8 cells (B-ALL) | IC50, in vitro cytotoxicity on MOLM-1 cells (CML) | IC50, in vitro cytotoxicity on MOLM-13 cells (AML) | IC50, in vitro cytotoxicity on MV4-11 cells (AML) | IC50, in vitro cytotoxicity on OCI-AML2 cells (AML) | IC50, in vitro cytotoxicity on SHI-1 cells (AML) | IC50, in vitro cytotoxicity on THP1 cells (AML)
B1 | 0.009 nM | 0.012 nM | 0.023 nM | 0.32 nM | 2.8 nM | 2 nM | 0.85 nM | 0.39 nM | 0.053 nM | 1.1 nM | 0.0022 nM | 0.0016 nM | 0.14 nM | 0.17 nM | 0.19 nM
B2 | 0.0033 nM | 0.0021 nM | 0.0032 nM | 0.17 nM | 0.023 nM | 0.95 nM | 6.6 nM | 0.24 nM | 0.022 nM | 0.071 nM | 0.00046 nM | 0.00054 nM | 0.1 nM | 0.029 nM | 0.03 nM
B3 | 0.0047 nM |  | 0.0059 nM | 0.41 nM | 0.14 nM | 0.29 nM | 4.1 nM | 0.41 nM | 0.03 nM | 0.21 nM | 0.0012 nM | 0.0013 nM | 0.21 nM | 0.032 nM | 0.058 nM
